Where two headings read alike, the source gives them in different places.

What all share (experiment): AUC
The target of experiment [1] is SynB1-Cys-ELP1.
In experiment [2] the target is SynB1-Cys-ELP1. This is another data set of the same source.
The target in experiment [3] is Bac-Cys-ELP1.
The target of experiment [4] is Bac-Cys-ELP1. The source holds these as a separate data set.

As to SynB1-Cys-ELP1, the Ka in experiment [1] was determined as 1480 M⁻¹; in experiment [2], 597 M⁻¹.
As to Bac-Cys-ELP1, the figures for the Ka in experiment [3] and in experiment [4] were 1290 M⁻¹ and 552 M⁻¹, respectively.

For the origin of these results see publication PMC3985474.
